Results: patent US20250320281A1

How the values were obtained:
[1] = target: HIV-1 Env of isolate MGRM-F1-022 (HIV-1); experiment: cell-based or functional assay
[2] = target: JR-FL gp120 ΔV3 (HIV-1); experiment: ELISA, antigen-coated wells
[3] = target: HIV-1 Env of isolate MGRM-AG-006 (HIV-1); experiment: cell-based or functional assay
[4] = target: HIV-1 Env of isolate MGRM-Chronic-B-010 (subtype B pseudovirus) (HIV-1); experiment: cell-based or functional assay
[5] = target: HIV-1 Env of isolate MGRM-AG-003 (HIV-1); experiment: cell-based or functional assay
[6] = target: HIV-1 Env of isolate 92BR020 (subtype B pseudovirus) (HIV-1); experiment: cell-based or functional assay
[7] = target: HIV-1 Env of isolate 92UG005 (pseudovirus) (HIV-1); experiment: cell-based or functional assay
[8] = target: HIV-1 Env of isolate MGRM-AG-008 (HIV-1); experiment: cell-based or functional assay
[9] = target: HIV-1 Env of isolate MGRM-AG-013 (HIV-1); experiment: cell-based or functional assay
[10] = target: HIV-1 92RW020 envelope glycoprotein (Env) on pseudovirus (HIV-1); experiment: cell-based or functional assay
[11] = target: HIV-1 Env of isolate JR-FL (subtype B pseudovirus) (HIV-1); experiment: cell-based or functional assay
[12] = target: HIV-1 Env of isolate 92UG031 (subtype A) (HIV-1); experiment: cell-based or functional assay
[13] = target: HIV-1 Env of isolate 94UG103 (subtype A) (HIV-1); experiment: cell-based or functional assay
[14] = target: HIV-1 envelope glycoprotein (Env) of isolate 93TH305 (HIV-1); experiment: cell-based or functional assay
[15] = target: HIV-1 Env of isolate 92WR009 (subtype A) (HIV-1); experiment: cell-based or functional assay
[16] = target: HIV-1 Env of isolate 94 KE 105 (subtype AC) (HIV-1); experiment: cell-based or functional assay
[17] = target: HIV-1 envelope glycoprotein (Env) of isolate APV_13 (HIV-1); experiment: cell-based or functional assay
[18] = target: HIV-1 Env of isolate 92WR024 (subtype A) (HIV-1); experiment: cell-based or functional assay
[19] = target: HIV-1 envelope glycoprotein (Env) of isolate CAAN.A2 (HIV-1); experiment: cell-based or functional assay
[20] = target: HIV-1 envelope glycoprotein (Env) of isolate MGRM-Chronic-B-001 (HIV-1); experiment: cell-based or functional assay
[21] = target: HIV-1 envelope glycoprotein (Env) of isolate 92BR020 (HIV-1); experiment: cell-based or functional assay
[22] = target: HIV-1 Env of isolate 93WR029 (subtype A) (HIV-1); experiment: cell-based or functional assay
[23] = target: HIV-1 envelope glycoprotein (Env) of isolate JR-FL (HIV-1); experiment: cell-based or functional assay
[24] = target: HIV-1 envelope glycoprotein (Env) of isolate APV_17 (HIV-1); experiment: cell-based or functional assay
[25] = target: HIV-1 envelope glycoprotein (Env) of isolate MGRM-Chronic-B-008 (HIV-1); experiment: cell-based or functional assay
[26] = target: HIV-1 Env of isolate 92UG037 (subtype A) (HIV-1); experiment: cell-based or functional assay
[27] = target: HIV-1 Env of isolate 92WR021 (subtype A) (HIV-1); experiment: cell-based or functional assay
[28] = target: HIV-1 envelope glycoprotein (Env) of isolate MGRM-Chronic-B-004 (HIV-1); experiment: cell-based or functional assay
[29] = target: HIV-1 Env of isolate 92RW008 (subtype A) (HIV-1); experiment: cell-based or functional assay
[30] = target: HIV-1 Env of isolate 92WR026 (subtype A) (HIV-1); experiment: cell-based or functional assay
[31] = target: HIV-1 Env of isolate 93UG077 (subtype A) (HIV-1); experiment: cell-based or functional assay
[32] = target: HIV-1 Env of isolate MGRM-C-001 (subtype C) (HIV-1); experiment: cell-based or functional assay
[33] = target: HIV-1 Env of isolate 92RW008 (HIV-1); experiment: cell-based or functional assay
[34] = target: HIV-1 Env of isolate SC422661.8 (subtype B) (HIV-1); experiment: cell-based or functional assay
[35] = target: HIV-1 Env of isolate 93IN905 (pseudovirus) (HIV-1); experiment: cell-based or functional assay

4980_N08 (PGT-143) (antibody), sequence (VH): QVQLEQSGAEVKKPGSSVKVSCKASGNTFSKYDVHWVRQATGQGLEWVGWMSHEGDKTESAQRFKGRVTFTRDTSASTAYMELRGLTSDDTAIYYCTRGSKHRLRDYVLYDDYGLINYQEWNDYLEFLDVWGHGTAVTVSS
4980_N08 (PGT-143) (antibody), sequence (VL): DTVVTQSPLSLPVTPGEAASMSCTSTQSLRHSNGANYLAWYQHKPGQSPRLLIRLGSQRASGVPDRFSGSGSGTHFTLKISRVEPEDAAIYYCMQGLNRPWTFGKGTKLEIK
5345_I01 (PGT-137) (antibody), sequence (VH): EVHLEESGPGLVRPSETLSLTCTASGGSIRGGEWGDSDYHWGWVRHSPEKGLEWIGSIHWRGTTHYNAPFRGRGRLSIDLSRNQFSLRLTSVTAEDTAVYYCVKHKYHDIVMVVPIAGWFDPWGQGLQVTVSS
5345_I01 (PGT-137) (antibody), sequence (VL): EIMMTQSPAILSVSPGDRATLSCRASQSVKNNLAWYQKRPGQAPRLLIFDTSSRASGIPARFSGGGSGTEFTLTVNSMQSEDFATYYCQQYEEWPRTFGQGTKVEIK
5329_C19 (PGT-136) (antibody), sequence (VH): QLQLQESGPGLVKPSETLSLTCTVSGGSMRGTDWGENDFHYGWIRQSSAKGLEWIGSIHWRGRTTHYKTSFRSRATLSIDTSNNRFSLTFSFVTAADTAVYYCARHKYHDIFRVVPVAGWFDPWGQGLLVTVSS
5329_C19 (PGT-136) (antibody), sequence (VL): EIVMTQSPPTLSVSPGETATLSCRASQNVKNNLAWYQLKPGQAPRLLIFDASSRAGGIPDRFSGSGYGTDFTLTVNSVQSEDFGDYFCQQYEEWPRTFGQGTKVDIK
4995_E20 (PGT-142) (antibody), sequence (VH): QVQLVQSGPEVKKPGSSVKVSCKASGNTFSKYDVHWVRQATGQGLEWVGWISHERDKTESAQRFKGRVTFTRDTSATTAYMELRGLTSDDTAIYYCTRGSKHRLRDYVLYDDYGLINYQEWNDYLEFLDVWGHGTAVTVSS
4995_E20 (PGT-142) (antibody), sequence (VL): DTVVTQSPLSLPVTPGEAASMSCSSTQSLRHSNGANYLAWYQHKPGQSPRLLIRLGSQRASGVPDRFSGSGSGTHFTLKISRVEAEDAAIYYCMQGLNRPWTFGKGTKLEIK
4993_K13 (PGT-141) (antibody), sequence (VH): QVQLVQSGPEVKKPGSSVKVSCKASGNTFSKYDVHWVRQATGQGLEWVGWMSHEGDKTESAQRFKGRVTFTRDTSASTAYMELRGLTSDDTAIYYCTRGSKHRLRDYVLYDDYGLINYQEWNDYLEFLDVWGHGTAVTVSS

4838_L06 (PGT-121) (antibody)
IC50 (µg/mL), pseudovirus neutralization [1]: 0.104 µg/mL | EC50 [2]: > 10 µg/mL

4858_P08 (PGT-123) (antibody)
IC50 [3]: 0.014 µg/mL | IC50 (µg/mL), pseudovirus neutralization [4]: 0.009 µg/mL | IC50 [5]: > 50 µg/mL | IC50 (µg/mL), pseudovirus neutralization [6]: 0.008 µg/mL | IC50, pseudovirus neutralization [7]: 9.79 µg/mL | IC50 [8]: 19.2 µg/mL | IC50 [9]: 3.37 µg/mL | neutralization IC50 [10]: 0.0038 µg/mL | neutralization IC80 [10]: 0.0106 µg/mL | neutralization IC90 [10]: 0.0194 µg/mL | neutralization IC95 [10]: 0.0343 µg/mL | IC50 (µg/mL), pseudovirus neutralization [1]: 0.075 µg/mL | IC50 (µg/mL), pseudovirus neutralization [11]: 0.014 µg/mL

4877_D15 (PGT-122) (antibody)
IC50 [3]: 0.028 µg/mL | IC50 (µg/mL), pseudovirus neutralization [4]: 0.018 µg/mL | IC50 [5]: 43.7 µg/mL | IC50 (µg/mL), pseudovirus neutralization [6]: 0.021 µg/mL | IC50, pseudovirus neutralization [7]: > 50 µg/mL | IC50 [8]: > 50 µg/mL | IC50 [9]: 0.521 µg/mL | IC50 (µg/mL), pseudovirus neutralization [1]: 0.277 µg/mL | IC50 (µg/mL), pseudovirus neutralization [11]: 0.026 µg/mL

4980_N08 (PGT-143) (antibody)
IC50 (µg/mL), pseudovirus neutralization [12]: 0.095 µg/mL | IC50 (µg/mL), pseudovirus neutralization [13]: > 50 µg/mL | IC50 (µg/mL), pseudovirus neutralization [14]: 17.3 µg/mL | IC50 (µg/mL), pseudovirus neutralization [15]: 0.01 µg/mL | IC50 (µg/mL), pseudovirus neutralization [16]: 0.368 µg/mL | IC50 (µg/mL), pseudovirus neutralization [17]: > 50 µg/mL | IC50 (µg/mL), pseudovirus neutralization [18]: 0.122 µg/mL | IC50 (µg/mL), pseudovirus neutralization [19]: > 50 µg/mL | IC50 (µg/mL), pseudovirus neutralization [20]: > 50 µg/mL | IC50 (µg/mL), pseudovirus neutralization [21]: 25.9 µg/mL | IC50 (µg/mL), pseudovirus neutralization [22]: 0.053 µg/mL | IC50 (µg/mL), pseudovirus neutralization [23]: > 50 µg/mL | IC50 (µg/mL), pseudovirus neutralization [24]: 1.11 µg/mL | IC50 (µg/mL), pseudovirus neutralization [25]: > 50 µg/mL | IC50 (µg/mL), pseudovirus neutralization [26]: 0.854 µg/mL | IC50 (µg/mL), pseudovirus neutralization [27]: > 50 µg/mL | IC50 (µg/mL), pseudovirus neutralization [28]: 0.395 µg/mL | IC50 (µg/mL), pseudovirus neutralization [29]: 0.385 µg/mL | IC50 (µg/mL), pseudovirus neutralization [30]: 5.36 µg/mL | IC50 (µg/mL), pseudovirus neutralization [31]: > 50 µg/mL

4993_K13 (PGT-141) (antibody)
IC50 (µg/mL), pseudovirus neutralization [12]: 0.093 µg/mL | IC50 (µg/mL), pseudovirus neutralization [13]: > 50 µg/mL | IC50 (µg/mL), pseudovirus neutralization [14]: > 50 µg/mL | IC50 (µg/mL), pseudovirus neutralization [15]: 0.022 µg/mL | IC50 (µg/mL), pseudovirus neutralization [16]: 0.204 µg/mL | IC50 (µg/mL), pseudovirus neutralization [17]: > 50 µg/mL | IC50 (µg/mL), pseudovirus neutralization [18]: 0.175 µg/mL | IC50 (µg/mL), pseudovirus neutralization [19]: > 50 µg/mL | IC50 (µg/mL), pseudovirus neutralization [20]: > 50 µg/mL | IC50 (µg/mL), pseudovirus neutralization [21]: 20.3 µg/mL | IC50 (µg/mL), pseudovirus neutralization [22]: 0.019 µg/mL | IC50 (µg/mL), pseudovirus neutralization [23]: > 50 µg/mL | IC50 (µg/mL), pseudovirus neutralization [24]: 0.59 µg/mL | IC50 (µg/mL), pseudovirus neutralization [25]: > 50 µg/mL | IC50 (µg/mL), pseudovirus neutralization [26]: 1.28 µg/mL | IC50 (µg/mL), pseudovirus neutralization [27]: > 50 µg/mL | IC50 (µg/mL), pseudovirus neutralization [28]: 0.586 µg/mL | IC50 (µg/mL), pseudovirus neutralization [29]: 0.579 µg/mL | IC50 (µg/mL), pseudovirus neutralization [30]: 1.78 µg/mL | IC50 (µg/mL), pseudovirus neutralization [31]: > 50 µg/mL

4995_E20 (PGT-142) (antibody)
IC50 (µg/mL), pseudovirus neutralization [12]: 0.05 µg/mL | IC50 (µg/mL), pseudovirus neutralization [13]: > 50 µg/mL | IC50 (µg/mL), pseudovirus neutralization [14]: 5.86 µg/mL | IC50 (µg/mL), pseudovirus neutralization [15]: 0.006 µg/mL | IC50 (µg/mL), pseudovirus neutralization [16]: 0.19 µg/mL | IC50 (µg/mL), pseudovirus neutralization [17]: > 50 µg/mL | IC50 (µg/mL), pseudovirus neutralization [18]: 0.069 µg/mL | IC50 (µg/mL), pseudovirus neutralization [19]: > 50 µg/mL | IC50 (µg/mL), pseudovirus neutralization [20]: > 50 µg/mL | IC50 (µg/mL), pseudovirus neutralization [21]: 15.1 µg/mL | IC50 (µg/mL), pseudovirus neutralization [22]: 0.014 µg/mL | IC50 (µg/mL), pseudovirus neutralization [23]: > 50 µg/mL | IC50 (µg/mL), pseudovirus neutralization [24]: 0.628 µg/mL | IC50 (µg/mL), pseudovirus neutralization [25]: > 50 µg/mL | IC50 (µg/mL), pseudovirus neutralization [26]: 0.557 µg/mL | IC50 (µg/mL), pseudovirus neutralization [27]: > 50 µg/mL | IC50 (µg/mL), pseudovirus neutralization [28]: 0.172 µg/mL | IC50 (µg/mL), pseudovirus neutralization [29]: 0.447 µg/mL | IC50 (µg/mL), pseudovirus neutralization [30]: 1.78 µg/mL | IC50 (µg/mL), pseudovirus neutralization [31]: > 50 µg/mL

5114_A19 (PGT-128) (antibody)
IC50 neutralization [32]: > 50 µg/mL | IC50 [33]: 0.003 µg/mL | IC50 neutralization [34]: 1.58 µg/mL | EC50 [2]: 7.8 µg/mL

5123_A06 (PGT-125) (antibody)
IC50 [3]: 0.008 µg/mL | IC50 (µg/mL), pseudovirus neutralization [4]: 0.006 µg/mL | IC50 [5]: > 50 µg/mL | IC50 (µg/mL), pseudovirus neutralization [6]: 0.016 µg/mL | IC50, pseudovirus neutralization [7]: > 50 µg/mL | IC50 [8]: > 50 µg/mL | IC50 [9]: 0.004 µg/mL | IC50 (µg/mL), pseudovirus neutralization [1]: > 50 µg/mL | IC50 (µg/mL), pseudovirus neutralization [11]: 0.009 µg/mL

5141_B17 (PGT-126) (antibody)
IC50 [3]: 0.01 µg/mL | IC50 (µg/mL), pseudovirus neutralization [4]: 0.005 µg/mL | IC50 [5]: > 50 µg/mL | IC50 (µg/mL), pseudovirus neutralization [6]: 0.015 µg/mL | IC50, pseudovirus neutralization [7]: 0.037 µg/mL | IC50 [8]: > 50 µg/mL | IC50 [9]: 0.008 µg/mL | IC50, pseudovirus neutralization [10]: 0.0046 µg/mL | IC80 (pseudovirus neutralization) [10]: 0.0168 µg/mL | IC90 (pseudovirus neutralization) [10]: 0.0359 µg/mL | IC95 (pseudovirus neutralization) [10]: 0.0728 µg/mL | IC50 (µg/mL), pseudovirus neutralization [1]: > 50 µg/mL | IC50 (µg/mL), pseudovirus neutralization [11]: 0.014 µg/mL

5145_B14 (PGT-127) (antibody)
IC50 [3]: 0.021 µg/mL | IC50 (µg/mL), pseudovirus neutralization [4]: 0.019 µg/mL | IC50 [5]: > 50 µg/mL | IC50 (µg/mL), pseudovirus neutralization [6]: 0.059 µg/mL | IC50, pseudovirus neutralization [7]: 1.11 µg/mL | IC50 [8]: > 50 µg/mL | IC50 [9]: 0.018 µg/mL | IC50 (µg/mL), pseudovirus neutralization [1]: > 50 µg/mL | IC50 (µg/mL), pseudovirus neutralization [11]: 0.029 µg/mL

5329_C19 (PGT-136) (antibody)
IC50 neutralization [32]: 7.52 µg/mL | Primary Neutralization Index (B cell culture supernatant) [35]: 5.6 | IC50 [33]: > 50 µg/mL | IC50 neutralization [34]: > 50 µg/mL | EC50 [2]: 0.1 µg/mL

5343_B08 (PGT-135) (antibody)
IC50 neutralization [32]: 10.1 µg/mL | Primary Neutralization Index (B cell culture supernatant) [35]: 43 | IC50 [33]: 1.42 µg/mL | IC50 neutralization [34]: 21.8 µg/mL | EC50 [2]: 0.2 µg/mL

5345_I01 (PGT-137) (antibody)
IC50 neutralization [32]: 21.5 µg/mL | Primary Neutralization Index (B cell culture supernatant) [35]: 3.3 | IC50 [33]: 0.148 µg/mL | IC50 neutralization [34]: > 50 µg/mL | EC50 [2]: 0.1 µg/mL
